Data published in patent US20150344570A1 (published 2015).

T1: FcγRIIb (human, UniProt P31994 43-217)
T1 construct: extracellular domain; Soluble extracellular domain with C-terminal His tag, used as analyte; also called FcgRIIb; CD32B; not shown: His tag at the C terminus
T1 sequence (looked up): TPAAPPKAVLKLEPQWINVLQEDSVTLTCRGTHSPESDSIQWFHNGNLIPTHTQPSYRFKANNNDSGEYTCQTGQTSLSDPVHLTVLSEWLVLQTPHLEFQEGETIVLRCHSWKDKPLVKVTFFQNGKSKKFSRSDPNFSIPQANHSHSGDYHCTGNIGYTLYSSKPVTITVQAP

B1: GpH7-A5/GpH7-B3 variant K334_08L/GpL16-k0 (antibody, human IgG1, kappa)
heavy 1: not shown
heavy 2: not shown
light: DIVMTQSPLSLPVTPGEPASISCQASESLVHSNRNTYLHWYLQKPGQSPQLLIYKVSNRFSGVPDRFSGSGSGTDFTLKISRVEAEDVGVYYCSQNTHVPPTFGQGTKVEIERTVAAPSVFIFPPSDEQLKSGTASVVCLLNNFYPREAKVQWKVDNALQSGNSQESVTEQDSKDSTYSLSSTLTLSKADYEKHKVYACEVTHQGLSSPVTKSFNRGEC
notes: also called He Ab K334_08L
B2: GpH7-A5/GpH7-B3 variant S239_09D/GpL16-k0 (antibody, human IgG1, kappa)
heavy 1: not shown
heavy 2: not shown
light: B1 light
notes: also called He Ab S239_09D
B3: GpH7-A5/GpH7-B3 variant T335_16H/GpL16-k0 (antibody, human IgG1, kappa)
heavy 1: not shown
heavy 2: not shown
light: B1 light
notes: also called He Ab T335_16H
B4: GpH7-A5/GpH7-B3 variant L328_20W/GpL16-k0 (antibody, human IgG1, kappa)
heavy 1: not shown
heavy 2: not shown
light: B1 light
notes: also called He Ab L328_20W
B5: GpH7-A5/GpH7-B3 variant S337_10E/GpL16-k0 (antibody, human IgG1, kappa)
heavy 1: not shown
heavy 2: not shown
light: B1 light
notes: also called He Ab S337_10E
B6: GpH7-A5/GpH7-B3 variant T335_13S/GpL16-k0 (antibody, human IgG1, kappa)
heavy 1: not shown
heavy 2: not shown
light: B1 light
notes: also called He Ab T335_13S
B7: GpH7-A5/GpH7-B3 variant T335_15Y/GpL16-k0 (antibody, human IgG1, kappa)
heavy 1: not shown
heavy 2: not shown
light: B1 light
notes: also called He Ab T335_15Y
B8: GpH7-A5/GpH7-B3 variant T335_01G/GpL16-k0 (antibody, human IgG1, kappa)
heavy 1: not shown
heavy 2: not shown
light: B1 light
notes: also called He Ab T335_01G
B9: GpH7-A5/GpH7-B3 variant T335_19Q/GpL16-k0 (antibody, human IgG1, kappa)
heavy 1: not shown
heavy 2: not shown
light: B1 light
notes: also called He Ab T335_19Q
B10: GpH7-A5/GpH7-B3 variant L328_14T/GpL16-k0 (antibody, human IgG1, kappa)
heavy 1: not shown
heavy 2: not shown
light: B1 light
notes: also called He Ab L328_14T
B11: GpH7-A5/GpH7-B3 variant Y296_18N/GpL16-k0 (antibody, human IgG1, kappa)
heavy 1: not shown
heavy 2: not shown
light: B1 light
notes: also called He Ab Y296_18N
B12: GpH7-A5/GpH7-B3 variant S337_09D/GpL16-k0 (antibody, human IgG1, kappa)
heavy 1: not shown
heavy 2: not shown
light: B1 light
notes: also called He Ab S337_09D
B13: GpH7-A5/GpH7-B3 variant K334_16H/GpL16-k0 (antibody, human IgG1, kappa)
heavy 1: not shown
heavy 2: not shown
light: B1 light
notes: also called He Ab K334_16H
B14: GpH7-A5/GpH7-B3 variant V266_07I/GpL16-k0 (antibody, human IgG1, kappa)
heavy 1: not shown
heavy 2: not shown
light: B1 light
notes: also called He Ab V266_07I
B15: GpH7-A5/GpH7-B3 variant S324_02A/GpL16-k0 (antibody, human IgG1, kappa)
heavy 1: not shown
heavy 2: not shown
light: B1 light
notes: also called He Ab S324_02A
B16: GpH7-A5/GpH7-B3 variant L235_15Y/GpL16-k0 (antibody, human IgG1, kappa)
heavy 1: not shown
heavy 2: not shown
light: B1 light
notes: also called He Ab L235_15Y
B17: GpH7-A5/GpH7-B3 variant L328_06M/GpL16-k0 (antibody, human IgG1, kappa)
heavy 1: not shown
heavy 2: not shown
light: B1 light
notes: also called He Ab L328_06M
B18: GpH7-A5/GpH7-B3 variant S267_02A/GpL16-k0 (antibody, human IgG1, kappa)
heavy 1: not shown
heavy 2: not shown
light: B1 light
notes: also called He Ab S267_02A
B19: GpH7-A5/GpH7-B3 variant T335_10E/GpL16-k0 (antibody, human IgG1, kappa)
heavy 1: not shown
heavy 2: not shown
light: B1 light
notes: also called He Ab T335_10E
B20: GpH7-A5/GpH7-B3 variant L235_20W/GpL16-k0 (antibody, human IgG1, kappa)
heavy 1: not shown
heavy 2: not shown
light: B1 light
notes: also called He Ab L235_20W
B21: GpH7-A5/GpH7-B3 variant L235_04F/GpL16-k0 (antibody, human IgG1, kappa)
heavy 1: not shown
heavy 2: not shown
light: B1 light
notes: also called He Ab L235_04F
B22: GpH7-A5/GpH7-B3 variant T335_07I/GpL16-k0 (antibody, human IgG1, kappa)
heavy 1: not shown
heavy 2: not shown
light: B1 light
notes: also called He Ab T335_07I
B23: GpH7-A5/GpH7-B3 variant Y300_01G/GpL16-k0 (antibody, human IgG1, kappa)
heavy 1: not shown
heavy 2: not shown
light: B1 light
notes: He Ab: mutation in one H chain only; also called He Ab
B24: GpH7-A5/GpH7-B3 variant I336_13S/GpL16-k0 (antibody, human IgG1, kappa)
heavy 1: not shown
heavy 2: not shown
light: B1 light
notes: as for B23
B25: GpH7-A5/GpH7-B3 variant I336_09D/GpL16-k0 (antibody, human IgG1, kappa)
heavy 1: not shown
heavy 2: not shown
light: B1 light
notes: as for B23
B26: GpH7-A5/GpH7-B3 variant A327_13S/GpL16-k0 (antibody, human IgG1, kappa)
heavy 1: not shown
heavy 2: not shown
light: B1 light
notes: as for B23
B27: GpH7-A5/GpH7-B3 variant I336_16H/GpL16-k0 (antibody, human IgG1, kappa)
heavy 1: not shown
heavy 2: not shown
light: B1 light
notes: as for B23
B28: GpH7-A5/GpH7-B3 variant I336_18N/GpL16-k0 (antibody, human IgG1, kappa)
heavy 1: not shown
heavy 2: not shown
light: B1 light
notes: as for B23
B29: GpH7-A5/GpH7-B3 variant A327_05P/GpL16-k0 (antibody, human IgG1, kappa)
heavy 1: not shown
heavy 2: not shown
light: B1 light
notes: as for B23
B30: GpH7-A5/GpH7-B3 variant I336_10E/GpL16-k0 (antibody, human IgG1, kappa)
heavy 1: not shown
heavy 2: not shown
light: B1 light
notes: as for B23
B31: GpH7-A5/GpH7-B3 variant I336_11K/GpL16-k0 (antibody, human IgG1, kappa)
heavy 1: not shown
heavy 2: not shown
light: B1 light
notes: as for B23
B32: GpH7-A5/GpH7-B3 variant A327_04F/GpL16-k0 (antibody, human IgG1, kappa)
heavy 1: not shown
heavy 2: not shown
light: B1 light
notes: as for B23
B33: GpH7-A5/GpH7-B3 variant A327_11K/GpL16-k0 (antibody, human IgG1, kappa)
heavy 1: not shown
heavy 2: not shown
light: B1 light
notes: as for B23
B34: GpH7-A5/GpH7-B3 variant A327_15Y/GpL16-k0 (antibody, human IgG1, kappa)
heavy 1: not shown
heavy 2: not shown
light: B1 light
notes: as for B23
B35: GpH7-A5/GpH7-B3 variant I336_12R/GpL16-k0 (antibody, human IgG1, kappa)
heavy 1: not shown
heavy 2: not shown
light: B1 light
notes: as for B23
B36: GpH7-A5/GpH7-B3 variant I336_04F/GpL16-k0 (antibody, human IgG1, kappa)
heavy 1: not shown
heavy 2: not shown
light: B1 light
notes: as for B23
B37: GpH7-A5/GpH7-B3 variant I336_15Y/GpL16-k0 (antibody, human IgG1, kappa)
heavy 1: not shown
heavy 2: not shown
light: B1 light
notes: as for B23
B38: GpH7-A5/GpH7-B3 variant A327_08L/GpL16-k0 (antibody, human IgG1, kappa)
heavy 1: not shown
heavy 2: not shown
light: B1 light
notes: as for B23
B39: GpH7-A5/GpH7-B3 variant A327_06M/GpL16-k0 (antibody, human IgG1, kappa)
heavy 1: not shown
heavy 2: not shown
light: B1 light
notes: as for B23
B40: GpH7-A5/GpH7-B3 variant I336_14T/GpL16-k0 (antibody, human IgG1, kappa)
heavy 1: not shown
heavy 2: not shown
light: B1 light
notes: as for B23

Legend:
FcγRIIa H = FcγRIIa H (human, UniProt P12318 34-217); assay: SPR Biacore, captured antibody, FcγR analyte; vs GpH7-A5/GpH7-B3/GpL16-k0 = 100
FcγRIIa H, sequence (P12318 34-217): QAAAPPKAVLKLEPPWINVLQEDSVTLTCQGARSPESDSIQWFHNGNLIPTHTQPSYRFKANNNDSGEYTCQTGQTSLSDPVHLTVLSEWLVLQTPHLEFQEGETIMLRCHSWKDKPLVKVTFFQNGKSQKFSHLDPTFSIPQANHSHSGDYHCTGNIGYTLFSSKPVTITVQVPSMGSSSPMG

FcγRIa = biological target: T2, FcγRIa (human, UniProt P12314 16-292); assay: SPR (Biacore), captured antibody, FcγR as analyte, relative binding
T2 construct: extracellular domain; Soluble extracellular domain with C-terminal His tag, used as analyte; also called FcgRI; CD64; not shown: His tag at the C terminus
T2 sequence (P12314 16-292): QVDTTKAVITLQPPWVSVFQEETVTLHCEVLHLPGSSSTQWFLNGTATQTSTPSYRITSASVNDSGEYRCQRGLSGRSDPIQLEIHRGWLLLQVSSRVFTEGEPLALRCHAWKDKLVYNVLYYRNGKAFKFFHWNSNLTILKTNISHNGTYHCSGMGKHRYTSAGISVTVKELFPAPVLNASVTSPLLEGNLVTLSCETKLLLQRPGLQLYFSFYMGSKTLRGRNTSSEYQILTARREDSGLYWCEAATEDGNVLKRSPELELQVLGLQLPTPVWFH
Protocol: (§1) The heterodimerized antibodies He Abs in which one of the H chains was introduced with an alteration were assayed for their binding activities to each activating FcγR and inhibitory FcγR according to the method described in Example 4. […] The activating FcγRs in FIGS. 26, 27, 28, and 29 are FcγRIa, FcγRIIa (R), FcγRIIa (H), and FcγRIIIa, respectively.
(§2) Analysis of interaction between objective antibody and the FcγR was carried out using Biacore T100 (GE Healthcare). HBS-EP+ (GE Healthcare) was used as the running buffer, and the measurement temperature was set to 25° C. Chips produced by immobilizing the antigen peptide by the amine coupling method to a Series S Sencor Chip CM5 (GE Healthcare), or alternatively, chips produced by allowing preliminarily biotinylated antigen peptides to interact with and immobilize onto a Series S Sensor Chip SA (certified) (GE Healthcare) were used. Antibodies of interest were captured onto an antigen peptide-immobilized chip, and allowed to interact to each FcγR diluted with running buffer. To regenerate and repeatedly use the chip, the antibodies captured on the chip were washed off by reacting 10 mM glycine-HCl, pH 1.5.

FcγRIIb = biological target: T1, FcγRIIb; assay: as above
Protocol: as §1, §2

Binder	He/Con_2aH (FcγRIIa H)	He/Con_1a (FcγRIa)	He/Con_2b (FcγRIIb)
B1	104 % of control		
B2	114 % of control		
B3	105 % of control		
B4	113 % of control		
B5	102 % of control		
B6	106 % of control		
B7	106 % of control		
B8	103 % of control		
B9	103 % of control		
B10	116 % of control		
B11	104 % of control		
B12	107 % of control		
B13	104 % of control		
B14	106 % of control		
B15	102 % of control		
B16	122 % of control		
B17	104 % of control		
B18	120 % of control		
B19	108 % of control		
B20	118 % of control		

Binder	He/Con_2aH (FcγRIIa H)	He/Con_1a (FcγRIa)	He/Con_2b (FcγRIIb)
B21	111 % of control		
B22	108 % of control		
B23		116 % of GpH7-A5/GpH7-B3/GpL16-k0	48.4 % of GpH7-A5/GpH7-B3/GpL16-k0
B24		102 % of GpH7-A5/GpH7-B3/GpL16-k0	83.7 % of GpH7-A5/GpH7-B3/GpL16-k0
B25		104 % of GpH7-A5/GpH7-B3/GpL16-k0	92.1 % of GpH7-A5/GpH7-B3/GpL16-k0
B26		102 % of GpH7-A5/GpH7-B3/GpL16-k0	79.5 % of GpH7-A5/GpH7-B3/GpL16-k0
B27		101 % of GpH7-A5/GpH7-B3/GpL16-k0	85.8 % of GpH7-A5/GpH7-B3/GpL16-k0
B28		108 % of GpH7-A5/GpH7-B3/GpL16-k0	97.6 % of GpH7-A5/GpH7-B3/GpL16-k0
B29		99.3 % of GpH7-A5/GpH7-B3/GpL16-k0	69.3 % of GpH7-A5/GpH7-B3/GpL16-k0
B30		108 % of GpH7-A5/GpH7-B3/GpL16-k0	89.8 % of GpH7-A5/GpH7-B3/GpL16-k0
B31		105 % of GpH7-A5/GpH7-B3/GpL16-k0	90.3 % of GpH7-A5/GpH7-B3/GpL16-k0
B32		99.1 % of GpH7-A5/GpH7-B3/GpL16-k0	63.7 % of GpH7-A5/GpH7-B3/GpL16-k0
B33		86.1 % of GpH7-A5/GpH7-B3/GpL16-k0	12.5 % of GpH7-A5/GpH7-B3/GpL16-k0
B34		96.3 % of GpH7-A5/GpH7-B3/GpL16-k0	60.8 % of GpH7-A5/GpH7-B3/GpL16-k0
B35		102 % of GpH7-A5/GpH7-B3/GpL16-k0	92.1 % of GpH7-A5/GpH7-B3/GpL16-k0
B36		106 % of GpH7-A5/GpH7-B3/GpL16-k0	91.2 % of GpH7-A5/GpH7-B3/GpL16-k0
B37		103 % of GpH7-A5/GpH7-B3/GpL16-k0	68.2 % of GpH7-A5/GpH7-B3/GpL16-k0
B38		98.6 % of GpH7-A5/GpH7-B3/GpL16-k0	63.1 % of GpH7-A5/GpH7-B3/GpL16-k0
B39		103 % of GpH7-A5/GpH7-B3/GpL16-k0	59.5 % of GpH7-A5/GpH7-B3/GpL16-k0
B40		104 % of GpH7-A5/GpH7-B3/GpL16-k0	89.5 % of GpH7-A5/GpH7-B3/GpL16-k0
